Article doi:10.1101/2025.02.17.638590

Molecular target: free tubulin (bovine) (UniProt Q6B856)
Experiment: tubulin recruitment assay

UniProt Q6B856, sequence (Q6B856 whole entry, looked up): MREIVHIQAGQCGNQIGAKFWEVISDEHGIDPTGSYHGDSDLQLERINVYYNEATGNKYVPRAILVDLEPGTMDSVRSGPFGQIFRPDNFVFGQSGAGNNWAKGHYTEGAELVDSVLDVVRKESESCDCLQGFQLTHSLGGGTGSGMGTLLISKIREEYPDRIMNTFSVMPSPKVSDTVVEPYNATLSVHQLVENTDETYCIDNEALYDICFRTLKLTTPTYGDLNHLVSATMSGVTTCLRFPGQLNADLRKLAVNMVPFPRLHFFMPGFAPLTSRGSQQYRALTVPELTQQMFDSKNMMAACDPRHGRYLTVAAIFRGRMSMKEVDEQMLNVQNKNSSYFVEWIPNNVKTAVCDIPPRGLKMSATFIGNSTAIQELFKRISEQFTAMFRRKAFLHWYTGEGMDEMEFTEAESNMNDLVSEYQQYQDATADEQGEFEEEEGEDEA

Row | percent of stabilised microtubules with recruited free tubulin [%] | percent of pre-polymerised microtubules with recruited free tubulin [%] | Substance
1 | 9 | – | MAP6d1-Δ2-35 (from UniProt Q14BB9 1-191) (natural protein)
2 | – | 57 | MAP6d1 (from UniProt Q14BB9 1-191) (natural protein)
